assay: soluble on expression in E. coli; label from the status in PepcDB or PDB records

Row | Sequence | soluble on expression in E. coli
1 | RHVTGVHSPTKPASYSVKWTIEEKELFEQGLAKFGRRWTKISKLIGSRTVLQVKSYARQYFKNKVKCGLDKETPNQKTGHNLQVKNEDKGTKAWTPSCLRGRADPNLNAVKIEKLSDDEEVDITDEVDELSSQTPQKNSSSDLLLDFPNSKMHETNQGEFIASDSQEALFSKSSRGCLQNEKQDETLSSSEITLWTEKQSNGDKKSIELNDQKFNELIKNCNKHDGRGIIVDARQLPSPEPCEIQKNLNDNEMLFHSCQMVEESHEEEELKPPEQEIEIDRNIIQEEEKQAIPEFFEGRQAKTPERYLKIRNYILDQWEICKPKYLNKTSVRPGLKNCGDVNCIGRIHTYLELIGAINFGCEQAVYNRPQTVDKVRIRDRKDAVEAYQLAQRLQSMRTRRRRVRDPWGNWCDAKDLEGQTFEHLSAEELAKRREEEKGRPVKSLKVPRPTKSSFDPFQLIPCNFFSEEKQEPFQVKVASEALLIMDLHAHVSMAEVIGLLGGRYSEVDKVVEVCAAEPCNSLSTGLQCEMDPVSQTQASETLAVRGFSVIGWYHSHPAFDPNPSLRDIDTQAKYQSYFSRGGAKFIGMIVSPYNRNNPLPYSQITCLVISEEISPDGSYRLPYKFEVQQMLEEPQWGLVFEKTRWIIEKYRLSHSSVPMDKIFRRDSDLTCLQKLLECMRKTLSKVTNCFMAEEFLTEIENLFLSNYKSNQENGVTEENCTKELLM | soluble
2 | MNVTIYDVAREASVSMATVSRVVNGNPNVKPSTRKKVLETIERLGYRPNAVARGLASKKTTTVGVIIPDISNIFYAELARGIEDIASMYKYNIILSNSDQNQDKQLHLLNNMLGKQVDGIIFMSGNVTEEHVEELKKSPVPVVLAASIESTNQIPSVTIDYEQAAFDAVQSLIDSGHKNIAFVSGTLEEPINHAKKVKGYKRALTESGLPVRDSYIVEGDYTYDSGIEAVEKLLEEDEKPTAIFVGTDEMALGVIHGAQDRGLNVPNDLEIIGFDNTRLSTMVRPQLTSVVQPMYDIGAVAMRLLTKYMNKETVDSSIVELPHRIEFRQSTK | soluble
3 | MLVTKKEISVANIGEELWRFSNSSYTTGSPWTETQFAEDFAQENSEYLFLVENGQWLGYIAYHFILDEAEISHVVVNGQKQHQGIGCQLMKAFKEYVKSRDITQIFLEVRESNILAQKLYEKTGFRKVAVRKNYYKEPQENAFVMCAKLRKEAQ | not soluble
4 | MTTVSKPDESSFDVRTLSMKTCGSRLCVGFCYCSGVVKFRKSESVGTVDIPFPSLGACPSLTLSMSPNMNFSSRMALAPTSPMKRSKSVPNILSGEYPNSVCVVANSIDENGDAGVDVTDCASTKPLVLGKDNYQDNYWDSQETNHRNADMKTPKKKVGKISKFVNICVSELKKFKNPNSGVTSIDGVERLKKEIAPLPSSPLKLTSTSTIEFQSTVTSSSPIMRSRETTSTIQRSKIISSTTKVMSDMLMDKEGKDSEISENSINCSTNLAVNKMGDVPSLSQFEDADGLQKKLTEPVELPAKSQEVYQYDVSASPAKEDLKWSTLKKIDLIVPSFRSKKRGLVAHLKSSPISKISYDGSPSKQVGVLDGEITDDGRIDSGPAKAIIPTSTENIIMPKELNISDIGEKAEVSRGLRKRHLEDSSTPSSRGPSTPAKLITDEDATNKKKRVLGKNMVDNKASSPNKEHILPIDQLNNSSAMGISSENTAPMELKATGNDPVSDGGGYKFLVTAETGRKFDEFRAKRQRLRESWMENKSPTSNKNVQTTAVTSGFQSNEQAPENLPATMECLNKEAATTPMNDNRALLTEVGPEAALAEPKLGKPLLPVENVLQYSKSPSKTAVTNKPTKTVLKANFNAPIGKINSDISFFTPKKVFGKSEYQYGPSMGKLIQMMGTGTPKKVLPEFGSSSKTALFSPRKEEHCAGAPRGSWKIAKMRVRTKLSNFYPSSRSKNSQQIRGKWLGQNIVQFSGHHSMIAQSANDKHGANLMEISAQPSTSTTAQNI | not soluble
5 | GPGSMRRLFPTAKLLGSTTGIRLASMKSSDKERLERLVEEVNGIKSKLKVLEESKAANGLVDLYASRKMKRLDIKRILGIFNDRAYHAPIFCHKALPIILAHFITGLDRLPSGLNAMPSILAVRATLLRSFQKLINCKIPATDDQVQHFRRVLEDIDEEHAERNLLQTMAFGILELKEYVSSHRRALVDLKKTSERWASIPMTEENVLTYAEIQDIQAPLDSVNRCMITYNFISRMFLNHDPDMTMSSNPRRIGMVDLEMNLEHVVRNAVDEAKQICTDHYGDCPDTEFELTSDTKAFRFPYMSTTIRYIILELMKNAFRATVDSHMKRNDVGMVTCADMPPVRVLINLQEGTEHACICISDEGMGMTDEALTMAMAYSYTSVSKPALQLGESGERCASTAPSPLAGYGYGLPMSRVYAQSLGGDLLLQTMEGYGTRAYYYIKIADAQPLCDEETK | soluble
6 | MGSDKIHHHHHHMKLVVATNFDDSLLEGLKRYPDVKYIFGSFKRTITGHGRAGFIVPHIKEEQFETHISLAHSYGIKFLYTMNTNTLLGKEYDTEFIGKVMKEVDKLVNFGVDGFIVALPFLIRLIRTEYPDLEVSASSFSRIRNVREVEEYTNLGVNTIIMHEDANRDFKLLKEVAALSRANRFEIELILNNSCLYGCPFRLTHDNISSVTSMVNGVNDVWFEYPVLLCATDVLNDPANLIRSRWIRPEDIKYYEEIGINRFKIAGRNKKTDWILRVVKAYAERKYEGDLLDLVSYPQGRAATKAVQMVNGPSSYFILTSVRIDNTKFPKGWIKFFFTNDCDTRSCKECKYCDIVAERVMTVNGEPFKSSEWSIRQPYPINIIPKFKERK | not soluble
7 | MAHHHHHHMQDEHKFNAEDRRRAPPPNTPERALDYHERTNDDKLIAHASQVNHLSKPRHRNCLTEFIIVETPVVSFLVDSSDPSLCLLRRSGRQGTKNEEKGVH | soluble
8 | MPVDRILEAELAVEQKSDQGVEGPGGTGGSGSSPNDPVTNICQAADKQLFTLVEWAKRIPHFSSLPLDDQVILLRAGWNELLIASFSHRSIDVRDGILLATGLHVHRNSAHSAGVGAIFDRVLTELVSKMRDMRMDKTELGCLRAIILFNPDAKGLSNPSEVEVLREKVYASLETYCKQKYPEQQGRFAKLLLRLPALRSIGLKCLEHLFFFKLIGDTPIDTFL | soluble
9 | MAHHHHHHMADGAAMSLSGQRIPLLKPTLSKWSRQLRSDIYDELLKLPLRYALHDFRTLQAHIHAVPATATNASCTAAAGERLPPGVYHASSGLSSASPDAPAYYAVAGRDSAVGYAPPLGPADPVDVIPFFVHRSSNGHLPGKVYSMNAKTLMPAFYMRIQNIEGDMFRFEEELMKIFPTKKIFVRSHSVYVYNVNLDGRAVLHHWLLGLGF | soluble
10 | MVVGGFGVGKTTMVRSVSEIRPLNTEETMTQAGEAVDDISEVRGKSATTVAFDFGRISLDARNVLYLFGAPGQERFWFLWDRLFSGTLGAVVLVDTRRIDDSWYAIDRLEHHGTPFIVACNDFGGPEHSPEAVREALDLDPRVPLVSCDARSRQSSKQVLITLVEHLQAHYAGPTARPRQEFALEHHHHHH | not soluble
11 | MPSSRRVRSRCCAFGITKRFACIRPACQRARMDAQMTNFETRLRENAAKTEALLGHLLSGEARADEITRPQNLLEAMRHGVLNGGKRLRPFLVIESVALLGGDAEAGLHVGAALECLHCYSLVHDDLPAMDDDDLRRGQPTVHRKFDEATAILAGDSLLTLAFDIIASDDNPLAAERKAALVISLARAAGIGGMAGGQALDLAAEKKAPDEDGIITLQAMKTGALLRFACEAGAIIAGSNQAERQRLRLFGEKIGLSFQLADDLLDLTADAATMGKATGKDAARGKGTLVALRGEAWAREKLQE | soluble
12 | MDYKMNNLQLEALLNETLSPQLIKDYCPNGLQVEGKVEVKRIVTGVTASMALIEAAIELKADALLVHHGYFWKNEPEAIRGMKGRRIRTLIQNDLNLYAYHLPLDIHPQLGNNAQLAQRLGICVDGGLEGHPQSVAMFGHFLQPLTGEELAHRIGQVLNRTPLHIAPDQADKLIETVGWCTGGGQDYIELAASRGLDAFISGEISERTTYSAREQSIHYFSAGHHATERYGIKALGEWLAENHGFDVTFIDIDNPVLEHHHHHH | soluble
13 | MGSDKIHHHHHHMTLNIDQESCIKCGKCVRVCPSDIFTQERAGETIGLVRVESCIVCGHCVDVCPTGSVSHSEFPPEKTHTIDYSQMPTPEQVMLLIKSRRSNRTLTSRPVPKEMLDKIVEAAHSAPTATNSQSLSFTVVTDPRKLRQVSDYTIGVFDSLAKLLLNPVVKCVVKPFMKDVYKYVPVFNRLKEEHKAGKDPILRKATALLLIHTPKSNRFGSEDANLAYQNASLMAQSLGVSQIYMGFVLTAIRQEGKDTLAKTLGIDGKIQAIMALGIPAFKYPKYTDRKEIVKNYIE | not soluble

From the DeepSol protein solubility set
